Measured values reported in patent US20120311745A1.

Target: receptor protein(s) / binding site of Cry1Ab core toxin on Brush Border Membrane Vesicles (BBMV's) f (Spodoptera frugiperda)

Substance “Cry1Ab core toxin protein (activated core toxin prepared by trypsin digestion of the Cry1Ab protein) (from UniProt P0A370 29-612)” has an IC50 of 5 nM.
